This note sets out measurements from paper PMC4619763, “A Novel Highly Thermostable Multifunctional Beta-Glycosidase from Crenarchaeon Acidilobus saccharovorans” (Archaea, 2015).

By Km is commonly meant the substrate concentration at which the rate is half of its maximum. What is called Vmax is the top rate of the reaction or transport when substrate is in excess. As usually defined, the kcat is the number of substrate molecules converted per active site and unit of time at saturation. The kcat/Km is the turnover number divided by the Michaelis constant.

One series has as its target T1, Asac_1390 (Acidilobus saccharovorans, UniProt D9PZ08).
T1 construct: full length, 490 residues, about 55 kDa on SDS-PAGE; pQE60 NcoI/BglII, expressed in E. coli DLT1270 pRARE2; purified by double heat treatment; no secretion signal; no tag mentioned (reverse primer carries the stop codon)
T1 sequence (D9PZ08 1-490): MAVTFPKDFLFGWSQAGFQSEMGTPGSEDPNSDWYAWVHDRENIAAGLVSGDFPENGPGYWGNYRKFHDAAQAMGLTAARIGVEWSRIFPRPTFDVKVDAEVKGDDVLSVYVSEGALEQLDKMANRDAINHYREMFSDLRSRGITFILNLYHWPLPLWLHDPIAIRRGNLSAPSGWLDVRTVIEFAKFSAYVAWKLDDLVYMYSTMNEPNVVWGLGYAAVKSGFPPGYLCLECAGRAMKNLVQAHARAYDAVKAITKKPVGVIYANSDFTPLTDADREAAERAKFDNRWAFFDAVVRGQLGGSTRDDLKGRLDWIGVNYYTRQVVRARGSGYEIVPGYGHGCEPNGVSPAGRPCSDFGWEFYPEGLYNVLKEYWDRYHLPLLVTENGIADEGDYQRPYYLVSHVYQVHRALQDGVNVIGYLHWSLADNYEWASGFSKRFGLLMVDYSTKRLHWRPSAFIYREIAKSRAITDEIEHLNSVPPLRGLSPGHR
Briefly: oNPGal hydrolysis, Cornish-Bowden and Dixon plots. In kind it is biochemical. As to conditions: mixed inhibition, dissociation constant of the EIS complex; otherwise as the row above.

Substrate in series [1]: O=[N+]([O-])c1ccc(O[C@@H]2O[C@H](CO)[C@@H](O)[C@H](O)[C@H]2O)cc1
Description: purified protein. Format: biochemical, Acidilobus saccharovorans. As to conditions: 0.1 M sodium phosphate pH 7.0, 93°C.

Substrate in series [2]: O=[N+]([O-])c1ccccc1O[C@@H]1O[C@H](CO)[C@H](O)[C@H](O)[C@H]1O
Briefly: purified protein. In kind it is biochemical, Acidilobus saccharovorans. The conditions noted are these: 0.1 M sodium phosphate pH 7.0, 93°C.

Substrate in series [3]: O=[N+]([O-])c1ccc(O[C@@H]2OC[C@@H](O)[C@H](O)[C@H]2O)cc1
Description: purified protein. In kind it is biochemical, Acidilobus saccharovorans. As to conditions: 0.1 M sodium phosphate pH 7.0, 93°C.

Substrate in series [4]: O=[N+]([O-])c1ccc(O[C@@H]2O[C@H](CO)[C@H](O)[C@H](O)[C@H]2O)cc1
Briefly: purified protein. The conditions noted are these: 0.1 M sodium phosphate pH 7.0, 93°C. In kind it is biochemical, Acidilobus saccharovorans.

Substrate in series [5]: O=[N+]([O-])c1ccc(O[C@@H]2O[C@H](CO)[C@@H](O)[C@H](O)[C@@H]2O)cc1
Description: purified protein. In kind it is biochemical, Acidilobus saccharovorans. The conditions noted are these: 0.1 M sodium phosphate pH 7.0, 93°C.

With `OC[C@H]1OC(O)[C@H](O)[C@@H](O)[C@@H]1O` (stereo partly drawn) [glucose], at Asac_1390, the “K i′” value was 158 mM.

B1: Asac_1390 (Acidilobus saccharovorans 345-15) (protein)
chain: MAVTFPKDFLFGWSQAGFQSEMGTPGSEDPNSDWYAWVHDRENIAAGLVSGDFPENGPGYWGNYRKFHDAAQAMGLTAARIGVEWSRIFPRPTFDVKVDAEVKGDDVLSVYVSEGALEQLDKMANRDAINHYREMFSDLRSRGITFILNLYHWPLPLWLHDPIAIRRGNLSAPSGWLDVRTVIEFAKFSAYVAWKLDDLVYMYSTMNEPNVVWGLGYAAVKSGFPPGYLCLECAGRAMKNLVQAHARAYDAVKAITKKPVGVIYANSDFTPLTDADREAAERAKFDNRWAFFDAVVRGQLGGSTRDDLKGRLDWIGVNYYTRQVVRARGSGYEIVPGYGHGCEPNGVSPAGRPCSDFGWEFYPEGLYNVLKEYWDRYHLPLLVTENGIADEGDYQRPYYLVSHVYQVHRALQDGVNVIGYLHWSLADNYEWASGFSKRFGLLMVDYSTKRLHWRPSAFIYREIAKSRAITDEIEHLNSVPPLRGLSPGHR
notes: full length, 490 residues, about 55 kDa on SDS-PAGE; pQE60 NcoI/BglII, expressed in E. coli DLT1270 pRARE2; purified by double heat treatment; no secretion signal; no tag mentioned (reverse primer carries the stop codon)
On to B1, for which the Km in the series “purified protein [1]” was 240 µM; in the series “purified protein [2]”, 2000 µM; in “purified protein [3]”, 4650 µM; in “purified protein [4]”, 2900 µM; in the series “purified protein [5]”, 2400 µM. Moreover, the Vmax in “purified protein [1]” worked out at 344 µmol/min/mg; in “purified protein [2]”, 469 µmol/min/mg; in the series “purified protein [3]”, 124 µmol/min/mg; in the series “purified protein [4]”, 499 µmol/min/mg; in “purified protein [5]”, 62.8 µmol/min/mg. Besides, the kcat in the series “purified protein [1]” stood at 318 s⁻¹; in “purified protein [2]”, 434 s⁻¹; in the series “purified protein [3]” it was 115 s⁻¹; in “purified protein [4]” it was 462 s⁻¹; in the series “purified protein [5]” it was 58.2 s⁻¹. Further, the kcat/Km in “purified protein [1]” was 1.33e+06 M⁻¹ s⁻¹; in “purified protein [2]”, 217000 M⁻¹ s⁻¹; in the series “purified protein [3]” it was 24600 M⁻¹ s⁻¹; in the series “purified protein [4]” it was 160000 M⁻¹ s⁻¹; in the series “purified protein [5]”, 24200 M⁻¹ s⁻¹.
